Data taken from PMC9592637, “Functional characterization and transcriptional repression by Lacticaseibacillus paracasei DinJ-YafQ” (Applied Microbiology and Biotechnology, 2022).

What was measured:
[1] = tested on: DinJ (Lacticaseibacillus paracasei 4366); test: EMSA; settings: KDapp, Hill n 3.7 ± 0.2; salmon sperm DNA competitor; EMSA: 2 nM DNA, 128 ng salmon sperm DNA in 10 uL, 50 mM Tris-HCl pH 7.5, 50 mM KCl, 5% glycerol, room temperature 10 min, 6% native PAGE in TBE; RNAP …
[2] = molecular target: the molecule itself; test: cross-linking; glutaraldehyde 0.1%, then SDS-PAGE; DinJ at 4 and 10 uM, DinJ-YafQ at 2 and 4 uM

194-bp dinJ-yafQ promoter fragment
Kd [1]: 61 nM

B1: His-tagged DinJ (L. paracasei antitoxin DinJ, N-terminal hexa-His tag) (natural protein)
chain: MSNEKRETRLSIRIDPALKEAAQNVANDMGMDLSTAVNMFLAKIVKDHALPFTPTSLPAETLQALKEAKSSRVLKRYRTPEVMWKDLEV
stoichiometry N [2]: 2
